Data set [1] has as its target T1, HP1α (mouse, UniProt Q61686 1-191). As to the kind of experiment: BLI; K+; BLI: 100 mM KCl, 50 mM NaCl, 20 mM Na phosphate, pH 8 (G4) or pH 7 (i-motif, dsDNA), room temp, 500 nM oligo or titration; EMSA: 50 mM Tris-HCl pH 7.5, 100 mM KCl, 0.5 mM EDTA, 0.5 mM DTT, 0.1 mg/ml BSA, room temp 1 h. As to conditions: protein: recombinant, tags: N-terminal His6 (pPROEX HTb), chain copies: 2.

Data set [2] addresses T1, HP1α. As to the kind of experiment: BLI; pH 7; BLI: 100 mM KCl, 50 mM NaCl, 20 mM Na phosphate, pH 8 (G4) or pH 7 (i-motif, dsDNA), room temp, 500 nM oligo or titration; EMSA: 50 mM Tris-HCl pH 7.5, 100 mM KCl, 0.5 mM EDTA, 0.5 mM DTT, 0.1 mg/ml BSA, room temp 1 h. The following applies: protein: recombinant, tags: N-terminal His6 (pPROEX HTb), chain copies: 2.
The target of data set [3] is T1, HP1α. As to the kind of experiment: BLI; BLI: 100 mM KCl, 50 mM NaCl, 20 mM Na phosphate, pH 8 (G4) or pH 7 (i-motif, dsDNA), room temp, 500 nM oligo or titration; EMSA: 50 mM Tris-HCl pH 7.5, 100 mM KCl, 0.5 mM EDTA, 0.5 mM DTT, 0.1 mg/ml BSA, room temp 1 h. As to conditions: protein: recombinant, tags: N-terminal His6 (pPROEX HTb), chain copies: 2.
For a further data set, the target named is HP1γ (mouse, UniProt P23198 1-183). As to the kind of experiment: BLI; K+; BLI: 100 mM KCl, 50 mM NaCl, 20 mM Na phosphate, pH 8 (G4) or pH 7 (i-motif, dsDNA), room temp, 500 nM oligo or titration; EMSA: 50 mM Tris-HCl pH 7.5, 100 mM KCl, 0.5 mM EDTA, 0.5 mM DTT, 0.1 mg/ml BSA, room temp 1 h. The following applies: protein: recombinant; tags: N-terminal His6 (pPROEX HTb); chain copies: 2; antiparallel G4.
Chain of HP1γ (P23198 whole entry): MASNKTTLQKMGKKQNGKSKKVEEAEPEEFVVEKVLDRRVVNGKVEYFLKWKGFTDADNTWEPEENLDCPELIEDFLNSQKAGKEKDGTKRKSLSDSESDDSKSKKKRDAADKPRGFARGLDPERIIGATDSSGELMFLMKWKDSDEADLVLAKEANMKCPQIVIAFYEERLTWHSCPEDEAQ

The next data set addresses HP1β (mouse, UniProt P83917 1-185). Described as above. As to conditions: protein: recombinant; tags: N-terminal His6 (pPROEX HTb); chain copies: 2; antiparallel G4.
The next data set has as its target HP1α 3K-A (mouse, UniProt Q61686 1-191, K104A;K105A;K106A). Described as above. The following applies: protein: recombinant; tags: N-terminal His6 (pPROEX HTb); chain copies: 2; antiparallel G4.

T1 sequence (Q61686 whole entry): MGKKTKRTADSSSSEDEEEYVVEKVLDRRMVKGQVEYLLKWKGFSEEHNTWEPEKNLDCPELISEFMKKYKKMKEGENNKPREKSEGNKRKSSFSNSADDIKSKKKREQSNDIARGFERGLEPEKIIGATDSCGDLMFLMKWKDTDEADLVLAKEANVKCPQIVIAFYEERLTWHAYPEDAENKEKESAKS
Chain of HP1α 3K-A (Q61686 whole entry K104A/K105A/K106A): as the sequence (Q61686 whole entry) above, with K104A, K105A, K106A counted along it
Chain of HP1β (P83917 whole entry): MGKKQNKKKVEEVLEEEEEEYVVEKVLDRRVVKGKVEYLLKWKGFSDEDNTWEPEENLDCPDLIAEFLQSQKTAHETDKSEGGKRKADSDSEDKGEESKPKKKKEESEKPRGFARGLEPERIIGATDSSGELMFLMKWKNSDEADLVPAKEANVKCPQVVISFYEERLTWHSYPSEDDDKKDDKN

In the case of AGGGGCGGGCGCGGGAGGAAGGGGGCGGGAGCGGGGCTG (structured_DNA) [bcl2], the Kd in the data set with HP1α [1] (parallel G4) was determined as 93.5 ± 1.6 nM.

Regarding CCCTAACCCTAACCCTAACCCTAACCCTAACCCTAACCCTAACCC (structured_DNA) [cTEL45], the binding result in the data set with HP1α [2] (i-motif (partial at pH 7)) is on record as “no binding”.

Regarding TGGGTGGGTGGGTGGGTGGGTGGGTGGGTGGGT (structured_DNA) [Oligo A], the Kd with HP1α [1] (parallel G4) was 86.8 ± 0.2 nM.

As for GGGAGGGAGGGCTGGGGG (structured_DNA) [src3], the Kd in the data set with HP1α [1] (parallel G4) came out at 140 ± 2 nM.

For GGGCGGGCGCCAGGGAGGGG (structured_DNA) [ckit2], the Kd with HP1α [1] (parallel G4) came out at 199 ± 3 nM.

Consider GGGGCAGCTGGGTCGCTCGGGGAACGGGG (structured_DNA) [src2], for which the Kd with HP1α [1] (antiparallel G4) is 410 ± 20 nM.

For TTTTTTTTTTTTTTTTTTTTTTTTTTTTTTTTTTTTTTTTTTTTT (ssDNA) [Thy45], the binding result with HP1α [3] (unstructured) was “no binding”.

In the case of TGGGTTGGGTTGGGTTGGGTTGGGTTGGGTTGGGTTGGGT (structured_DNA) [Oligo B], the Kd with HP1α [1] (parallel G4, monomer-dimer equilibrium) was found to be 69.1 ± 0.9 nM.

In the case of ACCCAAUCCCAAUCCCAAUCCC (ssRNA) [rC-rich22], the binding result in the data set with HP1α [3] is “no binding”.

As to TGGGTGGGTTAGGGTTAGGGTGGGTGGGTTAGGGTTAGGGT (structured_DNA) [Oligo E], in the data set with HP1α [1] (parallel G4), the Kd was 43.8 ± 1 nM.

In the case of GGGTTAGGGTTAGGGTTAGGGTTAGGGTTAGGGTTAGGGTTAGGG (structured_DNA) [gTEL45], the binding result with HP1γ, with HP1α [1] (antiparallel G4), with HP1β and with HP1α 3K-A was “no binding” throughout.

For GGGTGGGTAGGGTGGG (structured_DNA) [c-myc2], the Kd in the data set with HP1α [1] (parallel G4, at least dimer on native PAGE) was 610 ± 40 nM.

For TGGGTTAGGGTGGGTTAGGGTGGGTTAGGGTGGGTTAGGGT (structured_DNA) [Oligo C], the Kd with HP1α [1] (parallel G4) was found to be 78.2 ± 0.3 nM.

As for AGGGCGGTGTGGGAAGAGGGAAGAGGGGGAGG (structured_DNA) [kras], in the data set with HP1α [1] (parallel G4), the Kd was 68.8 ± 0.7 nM.

With TGGGTGGGTTAGGGTGGGTGGGTGGGTTAGGGTGGGT (structured_DNA) [Oligo D], the Kd with HP1α [1] (parallel G4) came out at 52.6 ± 1.1 nM.

With TGGGTTAGGGTTAGGGTGGGTGGGTTAGGGTTAGGGTGGGT (structured_DNA) [Oligo F], in the data set with HP1α [1] (parallel G4), the Kd worked out at 61.7 ± 1.5 nM.

As to GGGCTGCTGGGACTGGTTGGGAGGGCACTCTGGGG (structured_DNA) [src16], the Kd with HP1α [1] (antiparallel G4) came out at 1630 ± 1700 nM.

Take TCGTTCCGTTTTTCGTTCCGTTTTTCGTTCCGTTTTTCGTTCCGT (structured_DNA) [LL3rep]: in the data set with HP1α [2] (mini-i-motif), the binding result is recorded as “no binding”.

For TGGGTTAGGGTTAGGGTTAGGGTGGGTTAGGGTTAGGGTTAGGGT (structured_DNA) [Oligo G], the binding result in the data set with HP1α [1] (antiparallel or hybrid G4) is reported as “no binding”.
